Test results reported in article PMC10071571, “Site‐directed mutagenesis improves the practical application of L‐glutamic acid decarboxylase in Escherichia coli” (Engineering in Life Sciences, 2023).

T1: Gad B (Escherichia coli, UniProt P69910)
T1 construct: gene gadB; full length (1401 bp), pET-30a(+) His tag, expressed in E. coli BL21(DE3), Ni-NTA purified; about 53 kDa on SDS-PAGE; homo-hexamer
T1 sequence (P69910 1-466): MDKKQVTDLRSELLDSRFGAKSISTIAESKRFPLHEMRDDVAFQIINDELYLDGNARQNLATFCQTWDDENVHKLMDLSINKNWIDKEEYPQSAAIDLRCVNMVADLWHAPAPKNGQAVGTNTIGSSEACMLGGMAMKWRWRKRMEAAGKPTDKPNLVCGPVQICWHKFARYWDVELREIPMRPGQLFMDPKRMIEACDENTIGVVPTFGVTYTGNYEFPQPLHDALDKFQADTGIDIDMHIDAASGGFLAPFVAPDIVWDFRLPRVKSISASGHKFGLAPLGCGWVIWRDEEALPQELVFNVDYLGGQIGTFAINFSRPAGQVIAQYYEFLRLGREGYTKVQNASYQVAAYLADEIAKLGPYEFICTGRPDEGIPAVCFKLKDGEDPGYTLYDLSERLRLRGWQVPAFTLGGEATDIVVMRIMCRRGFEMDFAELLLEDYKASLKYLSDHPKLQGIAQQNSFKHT

B1: Gad B (Escherichia coli K-12) (protein)
chain: MDKKQVTDLRSELLDSRFGAKSISTIAESKRFPLHEMRDDVAFQIINDELYLDGNARQNLATFCQTWDDENVHKLMDLSINKNWIDKEEYPQSAAIDLRCVNMVADLWHAPAPKNGQAVGTNTIGSSEACMLGGMAMKWRWRKRMEAAGKPTDKPNLVCGPVQICWHKFARYWDVELREIPMRPGQLFMDPKRMIEACDENTIGVVPTFGVTYTGNYEFPQPLHDALDKFQADTGIDIDMHIDAASGGFLAPFVAPDIVWDFRLPRVKSISASGHKFGLAPLGCGWVIWRDEEALPQELVFNVDYLGGQIGTFAINFSRPAGQVIAQYYEFLRLGREGYTKVQNASYQVAAYLADEIAKLGPYEFICTGRPDEGIPAVCFKLKDGEDPGYTLYDLSERLRLRGWQVPAFTLGGEATDIVVMRIMCRRGFEMDFAELLLEDYKASLKYLSDHPKLQGIAQQNSFKHT
notes: full length (1401 bp), pET-30a(+) His tag, expressed in E. coli BL21(DE3), Ni-NTA purified; about 53 kDa on SDS-PAGE; homo-hexamer

What was measured:
Gad B = molecular target: T1, Gad B; test: GABA formation at varied PLP concentration (HPLC); format: biochemical; settings: coenzyme added to L-glutamate reaction; no constant
N[C@@H](CCC(=O)O)C(=O)O = system: T2, N[C@@H](CCC(=O)O)C(=O)O; test: HPLC of GABA formed; Lineweaver-Burk plot; format: biochemical, Escherichia coli; settings: substrate buffer with 0.05 mM PLP, phosphate buffer, 30 min, pH and temperature of the kinetics not given (optimum pH 4.3, 37 °C)
T2 construct: full length (1401 bp), pET-30a(+) His tag, expressed in E. coli BL21(DE3), Ni-NTA purified; about 53 kDa on SDS-PAGE; homo-hexamer
Description: (§1) HPLC of GABA formed; Lineweaver-Burk plot on Gad B

[1] = substrate: N[C@@H](CCC(=O)O)C(=O)O; test: HPLC of GABA formed; Lineweaver-Burk plot; format: biochemical, Escherichia coli; settings: substrate buffer with 0.05 mM PLP, phosphate buffer, 30 min, pH and temperature of the kinetics not given (optimum pH 4.3, 37 °C)
Description: as §1

| Molecule | GABA formation at varied PLP concentration (HPLC) (Gad B) | Km (N[C@@H](CCC(=O)O)C(=O)O) [mM] | Vmax (N[C@@H](CCC(=O)O)C(=O)O) [µmol/min/mg] | Km [1] [mM] | Vmax [1] [µmol/min/mg] |
| --- | --- | --- | --- | --- | --- |
| Cc1ncc(COP(=O)(O)O)c(C=O)c1O [PLP] | enzyme activity of wild‐type Gad B and Gad B‐T62S mutants was highest when using the coenzyme PLP | – | – | – | – |
| Gad B (Escherichia coli K-12; Q309A) | – | 7.2 ± 3.8 | 87.3 | – | – |
| Gad B (Escherichia coli K-12; T62S) | – | 7.3 ± 2.5 | 76.1 | – | – |
| B1 | – | – | – | 11.3 ± 2.1 | 32.1 |
